Results as given in patent US20170037151A1.
Each block holds one substance with its values, some of them ahead of it.

Key:
Total SYK (human) = Total SYK (human) (UniProt P43405); test: IHC pathology score, share of the 15 human DLBCL biopsies scored positive
SYK pY323 (human) = SYK pY323 (human) (UniProt P43405); test: as above
[1] = biological target: endogenous pSYK (activated SYK, pSYK Y525/526) in stimulated human lymphoma/leukemia cells, xenografts and biopsies (human) (UniProt P43405); test: as above
[2] = biological target: endogenous pSYK (activated SYK, pSYK Y525/526) in stimulated human lymphoma/leukemia cells, xenografts and biopsies (human) (UniProt P43405); test: IHC, PHTX95L xenograft, SYK inhibitor-treated mice, Aperio positive pixel count
[3] = biological target: endogenous pSYK (activated SYK, pSYK Y525/526) in stimulated human lymphoma/leukemia cells, xenografts and biopsies (human) (UniProt P43405); test: IHC, PHTX 95L xenograft untreated, Aperio positive pixel count

% Positive (Total SYK (human)): 100%
Substance: Epitomics 1688-1 anti-hSYK (total SYK) antibody

% Positive (SYK pY323 (human)): 40%
Substance: Epitomics 2173 anti-SYK pY323 antibody

% Positive [1]: 40%
Percent Positive Pixel per total Pixel [2]: 0.56%
Percent Positive Pixel per total Pixel [3]: 8.21%
Substance: Epitomics 2175-1 anti-pSYK Y525/526 antibody
